Experimental data published in patent US7910550B2, “Human kunitz-type inhibitor with enhanced antifibrinolytic activity” (STC.UNM, priority 2004, dated 2011).
Positions count from the first letter of the chain named. Names and notes keep the numbering of the source.

Assays:
[1] = test system: human umbilical vein endothelial cells (HUVECs); experiment: In vitro human endothelial cell angiogenesis assay (capillary tube formation on ECMATRIX); assay type: cell-based
Text: The angiogenesis assay is commercially available from Chemicon International, Inc. (Temecula, Calif.), and involves growing human umbilical vein endothelial cells (HUVECs) on a proprietary matrix, followed by assessing angiogenesis on this matrix by counting new branch points in sprouting endothelial cells.
A semi-quantitative assay for in vitro angiogenesis was utilized. Human umbilical vein endothelial cells (HUVEC, Clonetics Corp., Walkersville, Md.) were maintained in 25 cm^2 flasks in EGM-2 media (Clonetics Corp.) supplemented with 2% fetal bovine serum, gentamicin, amphotericin-B, hEGF, hydrocortisone, VEGF, hFGF-B, R^3-IGF-1, ascorbic acid and heparin. For assay, a 48-well tissue culture plate was coated with 100 μl of ECMATRIX (Chemicon International, Inc., Temecula, Calif.) followed by incubation at 37° C. for one hour. Approximately 5×10^4 cells were then seeded onto the surface of the polymerized matrix. Varying concentrations of full-length human TFPI-2, diluted in EGM-2 media and filtered, were added to the wells and plate was placed in 37° C.-humidified CO2 incubator. Each treatment was performed in duplicate wells. Separately, VEGF was used as a positive control. The three-dimensional organization of cells was examined every hour under an inverted photomicroscope. The capillary tube branch point formation was counted in each well following eight hours of incubation. For each concentration, eight randomly chosen areas under 250× magnified field were observed. The results are expressed as number of branching points (mean±SEM) and the differences between each mean value was tested by one way analysis of variance (ANOVA). Statistically p-value <0.05 was accepted.
To examine the effect of full-length human TFPI-2 on morphogenesis (capillary-like tube formation) of endothelial cells, HUVECs were seeded on the matrigel and treated with full-length human TFPI-2 (0.2 μM-5 μM).

[2] = biological target: plasmin (Homo sapiens, UniProt P00747); conditions: relative to TFPI-2; cited from earlier work
[3] = biological target: factor VIIa-tissue factor complex (Homo sapiens, UniProt P08709); conditions: relative to TFPI-2; cited from earlier work
[4] = test system: trypsin; conditions: relative to TFPI-2; cited from earlier work
[5] = test system: murine model of allergic asthma; experiment: Murine model of allergic asthma (OVA-immunized B6D2F1 mice); assay type: in vivo; conditions: lateral tail vein, days 11-14; vs vehicle treated mice
Method: B6D2F1 mice were immunized with ovalbumin (OVA) adsorbed to alum (days 0 and 5) and received two OVA aerosols on day 12. A subgroup of mice were treated with hexahistidine-tagged KD1, delivered via the lateral tail vein, on days 11-14. Mice were sacrificed on day 15 for the enumeration and differentiation of cells in the airway and lung tissue compartments.

[6] = test system: HT-1080 cells; experiment: FACS analysis of apoptosis with annexin V/propidium iodide; assay type: cell-based, human; conditions: 1 μM, 48 hours
Method: (§1) All cell lines were maintained in Dulbecco's minimal essential medium (DMEM), supplemented with heat-inactivated 10% fetal bovine serum and penicillin-streptomycin. The cells were cultured either in 6- or 12-well plates at 37° C. in a humidified atmosphere containing 6% CO2. At confluence, the cells were treated with fresh medium containing either wild-type TFPI-2, R24K KD1, or R24Q KD1. Cells were treated in duplicate with purified proteins at concentrations ranging from 0.5 μM to 10 μM for different time intervals. One set were also treated with PBS to serve as a control. The Limulus Amebocyte Lysate (LAL) assay was performed on each protein preparation to determine the presence of any endotoxin/LPS, and only trace amounts of endotoxin (<0.5 ng/L) were detected in each protein preparation.
To assess the degree of apoptosis between the various treatments, cells were grown to confluence in 6 well plates and treated with either proteins or vehicle as described earlier. For annexin V staining, approximately 1.2×10^6 cells were harvested with PBS containing 1 mM EDTA and washed twice gently with cold PBS. The cells were suspended in 100 μl of cold binding buffer (10 mM Hepes (pH 7.4), 140 mM NaCl, 2.5 mM CaCl2), and subsequently incubated at room temperature in the dark for 25 minutes with 5 μl of FITC-conjugated annexin V and 10 μl of propidium iodide (50 μg/ml stock). The cells were then washed in 500 μl of binding buffer to remove unbound reagents, centrifuged at 900×g for 5 minutes, and resuspended in 1 ml of cold binding buffer. The labeled cells were then analyzed using a FACSCALIBUR flow cytometer (Becton Dickinson, San Jose, Calif.) and the data analyzed using […] software.

[7] = test system: HT-1080 cells; experiment: Apoptosis detection by AO/EB staining; assay type: cell-based, human; conditions: 1 μM, 48 h; approximately 5% in vehicle-treated cells
Method: as §1
Cells were grown to confluence in two-chamber culture slides containing 2 ml medium. For AO/EB staining, the cultures were treated with recombinant proteins as described above. […] Cells were viewed within 30 minutes of staining and counted using a Zeiss axiocam epifluorescence microscope (Carl Zeiss, Inc., Thornwood, N.Y.) equipped with a triple cube filter [DAPI/FITC/RITC]. […] Experiments were performed in triplicate, and a minimum of 100 total live and apoptotic cells were counted in each treatment.

[8] = test system: HT-1080 cells; experiment: Western blot of cell extracts (Bax, Bcl-2, cleaved caspase-9, cleaved caspase-3); assay type: cell-based, human; conditions: 1 μM, 48 hours; vs vehicle-treated cells
Method: Cell extracts were analyzed for the pro-apoptotic Bax, the anti-apoptotic Bcl-2, cleaved caspase-9 and cleaved caspase-3 by immunoblotting techniques. Approximately, 1×10^6 HT-1080 cells were grown to confluence in 6-well plates and treated with recombinant proteins and vehicle as described above. Both floating and adherent cells were harvested and washed twice with cold PBS. The cells were lysed by sonication in 500 μl of lysis buffer containing of 125 mM Tris-HCl (pH 6.8), 2% SDS, 10% glycerol, 50 mM sodium phosphate, 1 mM PMSF and protease inhibitor cocktail. The lysate was kept on ice for about 10 minutes, centrifuged for 15 minutes at 10,000×g at 4° C., and the supernatant recovered. The supernatants were boiled for 3 min and 50 μg of lysate protein subjected to SDS-PAGE in 4-20% polyacrylamide gradient gels. […] The nitrocellulose membranes were then probed with specific antibodies dissolved in fresh blocking buffer, and immunoreactive proteins were identified using HRP-conjugated secondary antibodies and a chemiluminescent reagent system essentially as described in Kempiah et al., Mol. Cancer, 6:20, 2007. Separate blots were treated with mouse monoclonal anti-α-tubulin antibody in order to verify equal loading of lysate proteins onto the gel.

plasmin, sequence (P00747 581-810 limits assumed, species assumed): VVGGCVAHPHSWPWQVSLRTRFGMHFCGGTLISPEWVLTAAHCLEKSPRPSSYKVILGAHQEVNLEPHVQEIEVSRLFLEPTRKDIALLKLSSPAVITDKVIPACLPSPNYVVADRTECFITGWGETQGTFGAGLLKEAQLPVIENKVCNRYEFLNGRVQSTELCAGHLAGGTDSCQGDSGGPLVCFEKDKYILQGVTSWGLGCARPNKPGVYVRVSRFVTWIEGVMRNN
plasmin, sequence (P00747 97-580 partner limits assumed, species assumed): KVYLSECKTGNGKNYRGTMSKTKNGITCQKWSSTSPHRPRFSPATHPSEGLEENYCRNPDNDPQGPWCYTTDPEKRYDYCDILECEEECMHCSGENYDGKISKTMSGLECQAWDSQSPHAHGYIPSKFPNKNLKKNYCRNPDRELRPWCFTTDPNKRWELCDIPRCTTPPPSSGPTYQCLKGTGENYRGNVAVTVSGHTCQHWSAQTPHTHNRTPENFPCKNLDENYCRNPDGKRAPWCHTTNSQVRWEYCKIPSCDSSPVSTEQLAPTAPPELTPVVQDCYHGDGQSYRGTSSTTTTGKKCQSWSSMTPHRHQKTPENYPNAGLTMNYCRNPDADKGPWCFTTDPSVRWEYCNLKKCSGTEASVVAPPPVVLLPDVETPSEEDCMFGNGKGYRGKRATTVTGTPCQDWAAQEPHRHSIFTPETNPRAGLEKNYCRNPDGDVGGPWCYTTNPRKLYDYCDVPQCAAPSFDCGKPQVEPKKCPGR
factor VIIa-tissue factor complex, sequence (P08709 213-466 limits assumed): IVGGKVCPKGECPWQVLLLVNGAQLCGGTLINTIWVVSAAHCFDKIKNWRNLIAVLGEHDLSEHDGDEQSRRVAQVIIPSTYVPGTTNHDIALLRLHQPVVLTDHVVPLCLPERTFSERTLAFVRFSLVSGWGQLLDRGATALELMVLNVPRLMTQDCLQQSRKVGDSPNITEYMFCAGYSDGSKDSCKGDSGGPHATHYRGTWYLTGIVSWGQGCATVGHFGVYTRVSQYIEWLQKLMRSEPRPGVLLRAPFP
factor VIIa-tissue factor complex, sequence (P08709 61-212 partner limits assumed): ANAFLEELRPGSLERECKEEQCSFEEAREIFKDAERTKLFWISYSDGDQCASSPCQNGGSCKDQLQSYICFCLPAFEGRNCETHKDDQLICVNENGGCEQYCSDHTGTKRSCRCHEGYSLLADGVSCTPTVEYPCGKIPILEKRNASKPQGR
factor VIIa-tissue factor complex, sequence (P13726 33-295 partner): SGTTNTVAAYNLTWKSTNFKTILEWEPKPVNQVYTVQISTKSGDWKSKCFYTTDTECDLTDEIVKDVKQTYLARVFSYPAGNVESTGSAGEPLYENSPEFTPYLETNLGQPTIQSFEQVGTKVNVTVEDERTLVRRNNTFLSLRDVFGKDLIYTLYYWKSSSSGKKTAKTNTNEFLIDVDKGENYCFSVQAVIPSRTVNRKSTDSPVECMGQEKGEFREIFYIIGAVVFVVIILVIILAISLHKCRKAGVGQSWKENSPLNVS

VEGF [reference compound]
time to first visible tube ([1]; approximately 4 hours in the control): ≤ 3 h | number of tube formation ([1]; positive control, compared to control HUVECs): significant increase in number of tube formation

B1: R24Q TFPI-2: full-length TFPI-2 mutant, P1 arginine R24 to glutamine; inactive mutant (protein)
chain: DAAQEPTGNNAEICLLPLDYGPCQALLLRYYYDRYTQSCRQFLYGGCEGNANNFYTWEACDDACWRIEKVPKVCRLQVSVDDQCEGSTEKYFFNLSSMTCEKFFSGGCHRNRIENRFPDEATCMGFCAPKKIPSFCYSPKDEGLCSANVTRYYFNPRYRTCDAFTYTGCGGNDNNFVSREDCKRACAKALKKKKKMPKLRFASRIRKIRKKQF
inhibitory activity toward plasmin [2]: 5-10% | lost inhibitory activity towards plasmin [2]: > 90% | inhibitory activity toward factor VIIa-tissue factor complex [3]: 5-10% | lost inhibitory activity towards factor VIIa-tissue factor complex [3]: > 90% | inhibitory activity toward trypsin [4]: 5-10% | lost inhibitory activity towards trypsin [4]: > 90%

B2: KD1: the first Kunitz-type domain of human TFPI-2 (SEQ ID NO:2), recombinant, expressed in E. coli (protein, listed as Homo sapiens)
chain: DAAQEPTGNNAEICLLPLDYGPCRALLLRYYYDRYTQSCRQFLYGGCEGNANNFYTWEACDDACWRIEKVPKV
cells, macrophages and lymphocytes recoverable from the airways [5]: significant decrease in the number of airway macrophages and lymphocytes | inhibition of angiogenesis (capillary-like tube formation) ([1]; HUVECs on matrix): does not inhibit angiogenesis

B3: R24Q KD1: KD1 point mutant, arginine 24 to glutamine; lacks reactive site arginine/lysine residue (protein)
chain: B2 chain with R24Q
modifications: left off: small tags and cut ends
cells in a late apoptotic stage (annexin V and PI positive) ([6]; vehicle 4%): ~15% | early apoptotic cells (annexin V-FITC positive) ([6]; vehicle 16%): 55% | apoptotic cells (AO/EB staining) [7]: 18% | activated caspase 9 and activated caspase 3 (immunoblot) [8]: levels were significantly lower than that observed with TFPI-2 or R24K KD1
